Target: T1, SF3B core complex (human, UniProt O75533 453-1304; Q15393 1-1217; Q9BWJ5 1-86; Q7RTV0 1-98)
T1 construct: SF3B1 C-terminal HEAT domain, residues 453-1304; SF3B3, residues 1-1217; SF3B5, residues 1-86; PHF5A, residues 1-98; SF3B3 carries an N-terminal His6 and a TEV protease cleavage site; no cleavage step is described in the purification; also called SF3B complex; source: Tni insect cells (baculovirus), coexpressed, purified (Ni-NTA, Superdex 200 gel filtration); copies: + + +
Assay: SEC; purified SF3B complex and DHX15 (113–795)–SUGP1 (433–645) heterodimer mixed at a molar ratio of 1:5, overnight at 4°C, Superose 6 Increase 10/300 in 20 mM HEPES pH 7.9, 300 mM KCl, 5% glycerol, 5 mM DTT; complex fractions rerun and peak analysed by SDS-PAGE
Conditions: both partners purified

T1 sequence (O75533 453-1304, chain 1 of 4): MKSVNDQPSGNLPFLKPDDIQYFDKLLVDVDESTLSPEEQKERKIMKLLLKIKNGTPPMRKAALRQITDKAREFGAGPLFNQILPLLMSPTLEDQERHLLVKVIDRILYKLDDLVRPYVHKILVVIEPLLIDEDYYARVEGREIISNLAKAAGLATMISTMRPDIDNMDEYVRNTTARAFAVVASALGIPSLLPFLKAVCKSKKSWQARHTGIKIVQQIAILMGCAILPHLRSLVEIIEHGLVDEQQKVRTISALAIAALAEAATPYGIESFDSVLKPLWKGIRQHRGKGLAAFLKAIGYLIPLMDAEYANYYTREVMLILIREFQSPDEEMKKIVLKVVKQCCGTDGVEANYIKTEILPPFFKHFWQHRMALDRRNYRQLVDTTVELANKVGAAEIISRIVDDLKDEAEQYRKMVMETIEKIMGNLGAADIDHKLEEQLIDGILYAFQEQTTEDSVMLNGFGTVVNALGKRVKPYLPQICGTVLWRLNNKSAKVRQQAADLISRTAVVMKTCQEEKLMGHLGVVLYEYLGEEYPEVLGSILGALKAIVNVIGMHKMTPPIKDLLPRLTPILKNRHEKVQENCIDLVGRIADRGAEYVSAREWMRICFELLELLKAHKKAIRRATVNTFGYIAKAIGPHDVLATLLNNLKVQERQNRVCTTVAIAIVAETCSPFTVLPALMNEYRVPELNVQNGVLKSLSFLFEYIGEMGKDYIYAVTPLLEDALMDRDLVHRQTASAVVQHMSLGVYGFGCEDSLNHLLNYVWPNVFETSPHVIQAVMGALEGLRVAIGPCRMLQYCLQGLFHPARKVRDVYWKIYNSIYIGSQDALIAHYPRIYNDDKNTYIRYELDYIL
T1 sequence (Q15393 whole entry, chain 2 of 4, the tested form may be a part): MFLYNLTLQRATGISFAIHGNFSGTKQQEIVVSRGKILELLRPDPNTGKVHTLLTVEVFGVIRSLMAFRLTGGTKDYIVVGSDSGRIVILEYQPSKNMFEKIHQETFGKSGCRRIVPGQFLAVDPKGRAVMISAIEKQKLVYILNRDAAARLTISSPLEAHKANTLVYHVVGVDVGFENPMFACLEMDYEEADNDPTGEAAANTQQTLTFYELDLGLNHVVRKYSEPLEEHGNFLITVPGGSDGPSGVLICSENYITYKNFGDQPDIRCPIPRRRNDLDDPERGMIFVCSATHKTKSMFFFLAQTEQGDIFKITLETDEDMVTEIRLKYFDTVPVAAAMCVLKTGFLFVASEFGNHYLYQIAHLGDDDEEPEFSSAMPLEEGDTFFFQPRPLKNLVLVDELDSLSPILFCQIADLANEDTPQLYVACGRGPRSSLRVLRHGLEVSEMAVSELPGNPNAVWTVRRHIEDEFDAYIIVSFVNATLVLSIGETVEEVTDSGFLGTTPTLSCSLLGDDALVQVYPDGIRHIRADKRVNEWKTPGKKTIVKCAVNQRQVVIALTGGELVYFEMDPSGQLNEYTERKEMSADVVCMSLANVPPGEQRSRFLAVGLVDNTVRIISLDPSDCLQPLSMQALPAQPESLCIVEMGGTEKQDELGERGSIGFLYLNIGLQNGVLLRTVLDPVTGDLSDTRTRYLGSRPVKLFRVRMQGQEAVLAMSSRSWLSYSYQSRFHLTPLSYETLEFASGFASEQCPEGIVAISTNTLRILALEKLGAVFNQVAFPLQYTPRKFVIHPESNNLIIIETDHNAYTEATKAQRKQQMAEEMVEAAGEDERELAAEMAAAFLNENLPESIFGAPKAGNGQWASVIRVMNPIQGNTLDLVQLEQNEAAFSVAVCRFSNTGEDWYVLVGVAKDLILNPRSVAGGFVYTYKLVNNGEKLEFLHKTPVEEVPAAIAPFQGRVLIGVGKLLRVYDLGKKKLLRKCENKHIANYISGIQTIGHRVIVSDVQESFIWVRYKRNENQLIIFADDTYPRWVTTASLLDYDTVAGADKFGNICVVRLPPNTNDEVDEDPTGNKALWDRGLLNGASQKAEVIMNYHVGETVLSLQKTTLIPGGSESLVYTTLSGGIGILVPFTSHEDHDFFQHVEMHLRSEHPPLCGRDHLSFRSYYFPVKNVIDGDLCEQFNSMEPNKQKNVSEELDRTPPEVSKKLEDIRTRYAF
T1 sequence (Q9BWJ5 whole entry, chain 3 of 4, the tested form may be a part): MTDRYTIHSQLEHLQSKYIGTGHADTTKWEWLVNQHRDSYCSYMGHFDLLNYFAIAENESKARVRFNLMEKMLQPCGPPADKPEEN
T1 sequence (Q7RTV0 1-98, chain 4 of 4): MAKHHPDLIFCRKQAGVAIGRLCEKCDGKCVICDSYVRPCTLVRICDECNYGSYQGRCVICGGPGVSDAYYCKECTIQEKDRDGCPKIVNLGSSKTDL

B1: DHX15 (113–795)–SUGP1 (433–645) heterodimer (complex, human)
chain 1: QCINPFTNLPHTPRYYDILKKRLQLPVWEYKDRFTDILVRHQSFVLVGETGSGKTTQIPQWCVEYMRSLPGPKRGVACTQPRRVAAMSVAQRVADEMDVMLGQEVGYSIRFEDCSSAKTILKYMTDGMLLREAMNDPLLERYGVIILDEAHERTLATDILMGVLKEVVRQRSDLKVIVMSATLDAGKFQIYFDNCPLLTIPGRTHPVEIFYTPEPERDYLEAAIRTVIQIHMCEEEEGDLLLFLTGQEEIDEACKRIKREVDDLGPEVGDIKIIPLYSTLPPQQQQRIFEPPPPKKQNGAIGRKVVVSTNIAETSLTIDGVVFVIDPGFAKQKVYNPRIRVESLLVTAISKASAQQRAGRAGRTRPGKCFRLYTEKAYKTEMQDNTYPEILRSNLGSVVLQLKKLGIDDLVHFDFMDPPAPETLMRALELLNYLAALNDDGDLTELGSMMAEFPLDPQLAKMVIASCDYNCSNEVLSITAMLSVPQCFVRPTEAKKAADEAKMRFAHIDGDHLTLLNVYHAFKQNHESVQWCYDNFINYRSLMSADNVRQQLSRIMDRFNLPRRSTDFTSRDYYINIRKALVTGYFMQVAHLERTGHYLTVKDNQVVQLHPSTVLDHKPEWVLYNEFVLTTKNYIRTCTDIKPEWLVKIAPQYYDMSNFPQCEAKRQLDRIIAKLQSKEYSQY
chain 2: GVTELSDAQKKQLKEQQEMQQMYDMIMQHKRAMQDMQLLWEKAVQQHQHGYDSDEEVDSELGTWEHQLRRMEMDKTREWAEQLTKMGRGKHFIGDFLPPDELEKFMETFKALKEGREPDYSEYKEFKLTVENIGYQMLMKMGWKEGEGLGSEGQGIKNPVNKGTTTVDGAGFGIDRPAELSKEDDEYEAFRKRMMLAYRFRPNPLNNPRRPYY
notes: DHX15 (DEAH-box helicase 15), residues 113-795, lacks the N-terminal unstructured region; DHX15 was fused with N-terminal His6, MBP and a TEV protease cleavage site; also called DHX15–SUGP1; DHX15–SUGP1 heterodimer; source: Tni insect cells (baculovirus), coexpressed, purified as in Zhang et al. 2022a
binding result: binds
